Assay results reported in publication PMC8885411, “Engineered ACE2 decoy mitigates lung injury and death induced by SARS-CoV-2 variants” (Nature Chemical Biology, 2022).

B1: REGN10933 (antibody, V domains shown)
VH: QVQLVESGGGLVKPGGSLRLSCAASGFTFSDYYMSWIRQAPGKGLEWVSYITYSGSTIYYADSVKGRFTISRDNAKSSLYLQMNSLRAEDTAVYYCARDRGTTMVPFDYWGQGTLVTVSS
VL: DIQMTQSPSSLSASVGDRVTITCQASQDITNYLNWYQQKPGKAPKLLIYAASNLETGVPSRFSGSGSGTDFTFTISGLQPEDIATYYCQQYDNLPLTFGGGTKVEIK
notes: also called casirivimab
B2: REGN10987 (antibody, V domains shown)
VH: QVQLVESGGGVVQPGRSLRLSCAASGFTFSNYAMYWVRQAPGKGLEWVAVISYDGSNKYYADSVKGRFTISRDNSKNTLYLQMNSLRTEDTAVYYCASGSDYGDYLLVYWGQGTLVTVSS
VL: QSALTQPASVSGSPGQSITISCTGTSSDVGGYNYVSWYQQHPGKAPKLMIYDVSKRPSGVSNRFSGSKSGNTASLTISGLQSEDEADYYCNSLTSISTWVFGGGTKLTVL
notes: also called imdevimab

Target: T1, SARS-CoV-1 S protein with C-terminal C9 tag (SARS-CoV-1 (Severe acute respiratory …, UniProt P59594))
T1 construct: also called S protein of SARS-CoV-1; SARS-spike
Test: flow cytometry on cells
Details: one partner purified

| Binder | binding result |
| --- | --- |
| B1 | no binding |
| B2 | no binding |
